Data taken from the DeepSol protein solubility set.

Experiment: soluble on expression in E. coli; label from the status in PepcDB or PDB records
For “MAISIKTPEDIEKMRVAGRLAAEVLEMIEPYVKPGVSTGELDRICNDYIVNEQHAVSACLGYHGYPKSVCISINEVVCHGIPDDAKLLKDGDIVNIDVTVIKDGFHGDTSKMFIVGKPTIMGERLCRITQESLYLALRMVKPGINLREIGAAIQKFVEAEGFSVVREYCGHGIGQGFHEEPQVLHYDSRETNVVLKPGMTFTIEPMVNAGKKEIRTMKDGWTVKTKDRSLSAQYEHTIVVTDNGCEILTLRKDDTIPAIISHDELVPRGSLEHHHHHH”, the “soluble on expression in E. coli” value was “soluble”. In the case of “MAKAVGIDLGTTNSVIAVLEGGKPVVLENAEGERVTPSVVAFRDGETLVGRMAKRQAVLNPEGTIFEIKRFIGRRFEEVQEEAKRVPYKVVPGPDGGVRVEVKGKLYTPEEISAMILRKLVEDASKKLGEKITKAVITVPAYFNNAQREATANAGRIAGLEVLRIINEPTAAALAYGLDKKGNETVLVFDLGGGTFDVTILEIGEGVFEVKATSGDTHLGGSDMDHAIVNWLAEEFKKEHGVDLKADRQALQRLIEAAEKAKIELSSTLETTISLPFIALDPASKTPLHLEKKLTRAKFEELIQPLLKRLRGPVEQALKDAGLTPAQIDEVILVGGATRVPAVQQVVRELLGKEPNRSVNPDEVVAMGAAIQAGVLMGEVRDVVLLDVTPLSLGVETKGGVMTVLIPRNTTIPTRKCEIFTTAEHNQTAVKSIVFQGKRPMAQDNKSLGRFRLEGIPPMPAGVPQIEVCFDIDANGILHVTAKERSTGREASITIQNTTTLSEEEIQRIIEEAKRHAEEDRRRREHAELKNALDSARVQAERVLQERQGAPEARARLEAAIGKAKELVERDAPDPELKAATEELLKAVEEYEKGAQAASGKGPDDVIDADYKPAD”, the “soluble on expression in E. coli” value is reported as “soluble”. For “MAKFIQKRLFASYIIRKNYYEIIGVSASATRQEIRDAFLKKTKQLHPDQSRKSSKSDSRVGWATGSSETEQFMLVKEAYDVLRNEEKRKEYDLAFSREGGFLMEATHKTQEMSTQRRNIQRAEWSADVIPDAKRNSKKVVYSHFRNPEDEYLREKQKNRM”, the “soluble on expression in E. coli” value was “not soluble”. In the case of “MAKILVAGKIPEIGLELLKDHDVEMYDKEELISLDELTERVKDKDALLSLLSTKVTKEVIDAAPSLKIVANYGAGYDNIDYTYAGEKGIAVTNTPKVSTEATAELTFALLLAAARRIPEGDTLCRTTGFNGWAPLFFLGREVHGKTIGIIGLGEIGKAVAKRAKAFGMNILYTGPNRKPEAESELEATYVTLEELLQTADFITINCAYNPKLHHMIDEEQFKMMKKTAYIVNASRGPIMHEAALAHALKTNEIEGAALDVFEFEPKITEELKGLKNVVLAPHVGNATFETRDAMAEMAVRNILAVLKGEEPVTPVNQKVFVTK”, the “soluble on expression in E. coli” value is reported as “soluble”. In the case of “MAKIVILFDFDRTLIDGDSDNWVVTEMGLTEIFHQLRFTLPWNRLMDRMMMELQSQGRSIDDIKSCLKKMPIDSHIIEAIKSAKSSGCDLKIVSDANQFFIEKILEHHDLVDCFSEIYTNPTSLDDNGNLRILPYHSDALPPHSCNLCPSNLCKGLVMDHLRASSSNDQIPRRFIYLGDGGGDFCPTLKLRECDFVMPRTNYPLWKKISDNPLLIKAEVKEWSSAEEQQRILLQLVSTITKEEDS”, the “soluble on expression in E. coli” value is reported as “soluble”. In the case of “MAKKLSKKGDIQRDHFALISSFPLNQTPETKSEKLQKNLLLHKYYQGHRERLRRRYLKSKGNAIEDYEYLELLLFRTIPRANTKPIAKSLIAHFGSLADVLGADIHRLQEVQGCGPATALDLKIISDVAGRLARAQLFKRDIFSSWDQVLAYCKAVMAHETREQFRVLFLDKKNGLLADEVQQTGTIDHTPVYPREVISRALQLSASGLILVHNHPSGDATPSKADVTMTYRLKDAANALGITVHDHLIIARNNYTSFKELKFI”, the “soluble on expression in E. coli” value is reported as “not soluble”. With “MAKKPTALIILDGFANRESEHGNAVKLANKPNFDRYYNKYPTTQIEASGLDVGLPEGQMGNSEVGHMNIGAGRIVYQSLTRINKSIEDGDFFENDVLNNAIAHVNSHDSALHIFGLLSDGGVHSHYKHLFALLELAKKQGVEKVYVHAFLDGRDVDQKSALKYIEETEAKFNELGIGQFASVSGRYYAMDRDKRWEREEKAYNAIRNFDAPTYATAKEGVEASYNEGLTDEFVVPFIVENQNDGVNDGDAVIFYNFRPDRAAQLSEIFANRAFEGFKVEQVKDLFYATFTKYNDNIDAAIVFEKVDLNNTIGEIAQNNNLTQLRIAETEKYPHVTYFMSGGRNEEFKGERRRLIDSPKVATYDLKPEMSAYEVKDALLEELNKGDLDLIILNFANPDMVGHSGMLEPTIKAIEAVDECLGEVVDKILDMDGYAIITADHGNSDQVLTDDDQPMTTHTTNPVPVIVTKEGVTLRETGRLGDLAPTLLDLLNVEQPEDMTGESLIKH” the “soluble on expression in E. coli” value was “not soluble”.
